Test results published in patent CN113929777A (DONGGUAN PENGZHI BIOTECHNOLOGY CO LTD, dated 2022).

Target: T1, 重组肌红蛋白(自产) (UniProt P02144 2-154)
T1 construct: The ELISA names it 重组肌红蛋白 and the BLI assay names it MYO蛋白; both are treated as one molecule; also called MYO蛋白; Mb
T1 sequence (looked up): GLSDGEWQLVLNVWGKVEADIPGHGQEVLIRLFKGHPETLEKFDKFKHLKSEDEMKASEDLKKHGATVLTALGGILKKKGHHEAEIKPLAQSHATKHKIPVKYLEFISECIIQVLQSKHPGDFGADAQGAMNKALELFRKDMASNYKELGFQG
Assay: BLI, antibody captured on AMC sensors, MYO protein in serial dilution

B1: 实施例1的肌红蛋白单克隆抗体(WT) (antibody, mouse IgG1, kappa, V domains shown)
VH: QIQLVQSGPELKKPGETVKISCKASGYTYTEFSVHWVKQAPGKGLKWMGWINSETSEPTYGDDFKGRFAFSLETSASAAYLQINNLKNEDSATYFCARRAYYLFGPFTYWGQGTLVTVSA
VL: DIVLTQSPASLAVSLGQRATISCRASKSVDFNGDSYMNWHQQKPGQPPKLLIYAASQRESGIPARFSGSGSGTDFTLNIHPVEEEDAATYYCQHSNEEPYTFGGGTKLEIKR
notes: Recombinant antibody cloned from hybridoma 5G9 and expressed in CHO cells; Detected with goat anti-mouse IgG-HRP; also called WT抗体; 5G9 recombinant antibody
B1 showed a Kd of 4.56 nM, a koff of 0.000118 s⁻¹ and a kon of 25900 M⁻¹ s⁻¹.
